# pIC50, pKd: −log10 of the molar value.
# How the values were obtained:
# HLA-A*01:01 = assay: IEDB peptide-MHC binding, purified MHC/direct/fluorescence; filed as Kd, often an IC50 or EC50 that approximates it; ≥ and ≤ were set here for values at or beyond the usual limits of such assays
# HLA-A*02:01 [1] = assay: as above
# HLA-A*03:01 = assay: as above
# HLA-A*11:01 = assay: as above
# HLA-A*26:01 [2] = assay: as above
# HLA-A*31:01 = assay: as above
# HLA-A*69:01 = assay: as above
# HLA-B*07:02 [3] = assay: as above
# HLA-B*08:01 = assay: as above
# HLA-B*15:01 [4] = assay: as above
# HLA-B*27:05 = assay: as above
# HLA-B*40:01 = assay: as above
# HLA-B*44:02 = assay: as above; conditions: source organism: Vibrio cholerae
# HLA-B*58:01 = assay: as above
# HLA-A*26:01 [5] = assay: IEDB peptide-MHC binding, purified MHC/competitive/radioactivity; filed as Kd, often an IC50 or EC50 that approximates it; ≥ and ≤ were set here for values at or beyond the usual limits of such assays
# HLA-A*68:02 = assay: as above
# HLA-A*30:02 = assay: as above
# HLA-B*35:01 = assay: as above
# HLA-A*02:01 [6] = assay: IEDB peptide-MHC binding, purified MHC/competitive/fluorescence; ≥ and ≤ were set here for values at or beyond the usual limits of such assays
# HLA-A*24:02 = assay: as above
# HLA-B*15:01 [7] = assay: as above
# HLA-B*53:01 = assay: IEDB peptide-MHC binding, purified MHC/competitive/radioactivity; filed as Kd, often an IC50 or EC50 that approximates it; ≥ and ≤ were set here for values at or beyond the usual limits of such assays; conditions: source organism: Dengue virus 4 Philippines/H241/1956
# HLA-B*07:02 [8] = assay: as above
# HLA-A*32:01 = assay: as above; conditions: source organism: Vaccinia virus WR
# HLA-B*57:01 = assay: IEDB peptide-MHC binding, purified MHC/direct/fluorescence; filed as Kd, often an IC50 or EC50 that approximates it; ≥ and ≤ were set here for values at or beyond the usual limits of such assays; conditions: source organism: Giardia lamblia ATCC 50803
# HLA-A*24:03 = assay: as above; conditions: source organism: Pseudomonas aeruginosa UCBPP-PA14
# [9] = source organism: Vibrio cholerae
# [10] = source organism: Dengue virus 4 Philippines/H241/1956
# [11] = source organism: Dengue virus 3 Sri Lanka/1266/2000
# [12] = source organism: Vaccinia virus Copenhagen
# [13] = source organism: Zaire ebolavirus
# [14] = source organism: Dengue virus 2 Jamaica/1409/1983
# [15] = source organism: Vaccinia virus
# [16] = source organism: Sudan ebolavirus
# [17] = source organism: Dengue virus 1 Brazil/97-11/1997
# [18] = source organism: Giardia lamblia ATCC 50803
# [19] = source organism: Pseudomonas aeruginosa UCBPP-PA14
sequence,measurement,setting,value
AENKKFKLH,pKd,HLA-A*01:01; [9],≤ 4.70
same,pKd,HLA-A*02:01 [1]; [9],≤ 4.70
same,pKd,HLA-A*03:01; [9],≤ 4.70
same,pKd,HLA-A*11:01; [9],≤ 4.70
same,pKd,HLA-A*26:01 [2]; [9],≤ 4.70
same,pKd,HLA-A*31:01; [9],≤ 4.70
same,pKd,HLA-A*69:01; [9],≤ 4.70
same,pKd,HLA-B*07:02 [3]; [9],≤ 4.70
same,pKd,HLA-B*08:01; [9],≤ 4.70
same,pKd,HLA-B*15:01 [4]; [9],≤ 4.70
same,pKd,HLA-B*27:05; [9],≤ 4.70
same,pKd,HLA-B*40:01; [9],5.57
same,pKd,HLA-B*44:02,≤ 4.70
same,pKd,HLA-B*58:01; [9],≤ 4.70
HTIENTSANL,pKd,HLA-A*26:01 [5]; [10],≤ 4.31
same,pKd,HLA-A*68:02; [10],7.82
LAGPISQHNY,pKd,HLA-A*30:02; [11],≤ 4.22
same,pKd,HLA-B*35:01; [11],6.73
ISIKLTDSL,pIC50,HLA-A*02:01 [6]; [12],5.14
same,pIC50,HLA-A*24:02; [12],5.44
same,pIC50,HLA-B*15:01 [7]; [12],5.25
QQKNSQKGQ,pIC50,HLA-B*15:01 [7]; [13],≤ 4.03
QVMLLILCV,pKd,HLA-A*68:02; [14],5.76
FVEGVSGGAW,pKd,HLA-B*53:01,6.68
LMHNQDGLI,pIC50,HLA-A*02:01 [6]; [13],5.77
same,pIC50,HLA-A*24:02; [13],4.61
same,pIC50,HLA-B*15:01 [7]; [13],4.17
MAVLFVVTL,pKd,HLA-B*35:01; [10],6.44
VFAPKQKMF,pIC50,HLA-A*24:02; [15],7.58
same,pIC50,HLA-B*15:01 [7]; [15],4.85
LQSPPIREA,pIC50,HLA-A*02:01 [6]; [16],4.84
same,pIC50,HLA-B*15:01 [7]; [16],4.42
TTATITPQA,pKd,HLA-A*68:02; source organism: Dengue virus 1 Nauru/West Pac/1974,8.95
NPNMIDKTPV,pKd,HLA-B*07:02 [8]; source organism: Dengue virus 4 Thailand/0348/1991,6.40
LLLWFNYLF,pIC50,HLA-A*02:01 [6]; source organism: Variola virus,6.90
same,pIC50,HLA-B*15:01 [7]; source organism: Variola virus,≤ 2.53
same,pKd,HLA-A*32:01,8.84
TTPFGQQRV,pKd,HLA-A*68:02; [10],6.99
QMKDCMREL,pKd,HLA-A*68:02; source organism: Homo sapiens,≤ 4.22
HMMKDEPVV,pIC50,HLA-A*02:01 [6]; [13],5.06
same,pIC50,HLA-B*15:01 [7]; [13],4.33
SPPPVGKAEL,pKd,HLA-B*07:02 [8]; [14],7.17
ETYQLWTALV,pKd,HLA-A*26:01 [5]; [11],7.25
same,pKd,HLA-A*68:02; [11],10.15
WHYDQDHPY,pKd,HLA-A*30:02; [14],≤ 4.41
same,pKd,HLA-B*35:01; [14],5.12
IPVTMTLWYM,pKd,HLA-B*07:02 [8]; [10],6.13
same,pKd,HLA-B*35:01; [10],6.81
same,pKd,HLA-B*53:01,7.16
SLAKHGEYA,pIC50,HLA-A*02:01 [6]; [13],5.14
same,pIC50,HLA-B*15:01 [7]; [13],≤ 3.90
GQQFYWPVM,pIC50,HLA-A*02:01 [6]; [13],5.24
same,pIC50,HLA-A*24:02; [13],6.94
same,pIC50,HLA-B*15:01 [7]; [13],5.82
TSLSMTCIAV,pKd,HLA-A*68:02; [17],4.87
YMYAATNTH,pKd,HLA-B*15:01 [4]; [18],7.40
same,pKd,HLA-B*57:01,≤ 4.70
same,pKd,HLA-B*58:01; [18],≤ 4.70
ASDDLEHWQ,pKd,HLA-A*01:01; [19],≤ 4.70
same,pKd,HLA-A*02:01 [1]; [19],≤ 4.70
same,pKd,HLA-A*03:01; [19],≤ 4.70
same,pKd,HLA-A*11:01; [19],≤ 4.70
same,pKd,HLA-A*24:03,≤ 4.70
same,pKd,HLA-A*26:01 [2]; [19],≤ 4.70
same,pKd,HLA-A*31:01; [19],≤ 4.70
same,pKd,HLA-A*69:01; [19],≤ 4.70
same,pKd,HLA-B*07:02 [3]; [19],≤ 4.70
same,pKd,HLA-B*08:01; [19],≤ 4.70
same,pKd,HLA-B*15:01 [4]; [19],≤ 4.70
same,pKd,HLA-B*27:05; [19],≤ 4.70
same,pKd,HLA-B*40:01; [19],≤ 4.70
same,pKd,HLA-B*58:01; [19],≤ 4.70
RPAKNGTVMD,pKd,HLA-B*07:02 [8]; [17],6.50
IPEPDRQRTP,pKd,HLA-B*35:01; [17],7.64
LAANAICSAV,pKd,HLA-A*68:02; [14],8.04
EVALLRTYCI,pKd,HLA-A*26:01 [5]; [10],5.21
same,pKd,HLA-A*68:02; [10],7.53
TIAVSTANI,pKd,HLA-A*68:02; [10],7.59

# — the Immune Epitope Database (IEDB)
